In patent publication US20240132624A1 (Ablynx, published 2024):
Substitutions are numbered along the chain they refer to.

B1: T0263018B11 S30G (VHH, name in Kabat numbering)
VHH: EVQLVESGGGVVQPGGSLRLSCAASGFTFGSYAMYWVRQAPGKGLEWVSAISSGGGSTDYADSVKGRFTISRDNSKNTLYLQMNSLRPEDTALYYCAADTLYTSLTWYSYWGQGTLVTVSS
notes: FLAG3-His6 tagged
B2: T0263018B11 S52G (VHH, name in Kabat numbering)
VHH: B1 VHH with G30S, S52G
notes: FLAG3-His6 tagged
B3: T0263018B11 S31N (VHH, name in Kabat numbering)
VHH: B1 VHH with G30S, S31N
notes: FLAG3-His6 tagged
B4: T0263018B11 S52aG (VHH, name in Kabat numbering)
VHH: B1 VHH with G30S, S53G
notes: FLAG3-His6 tagged
B5: T0263018B11 S52H (VHH, name in Kabat numbering)
VHH: B1 VHH with G30S, S52H
notes: FLAG3-His6 tagged
B6: T0263018B11 S52T (VHH, name in Kabat numbering)
VHH: B1 VHH with G30S, S52T
notes: FLAG3-His6 tagged
B7: T0263018B11 S31P (VHH, name in Kabat numbering)
VHH: B1 VHH with G30S, S31P
notes: FLAG3-His6 tagged
B8: T0263018B11 S52aN (VHH, name in Kabat numbering)
VHH: B1 VHH with G30S, S53N
notes: FLAG3-His6 tagged
B9: T0263018B11 S30T (VHH, name in Kabat numbering)
VHH: B1 VHH with G30T
notes: FLAG3-His6 tagged
B10: T0263018B11 S52D (VHH, name in Kabat numbering)
VHH: B1 VHH with G30S, S52D
notes: FLAG3-His6 tagged
B11: T0263018B11 S30K (VHH, name in Kabat numbering)
VHH: B1 VHH with G30K
notes: FLAG3-His6 tagged
B12: T0263018B11 S52R (VHH, name in Kabat numbering)
VHH: B1 VHH with G30S, S52R
notes: FLAG3-His6 tagged
B13: T0263018B11 S52aE (VHH, name in Kabat numbering)
VHH: B1 VHH with G30S, S53E
notes: FLAG3-His6 tagged
B14: T0263018B11 S52V (VHH, name in Kabat numbering)
VHH: B1 VHH with G30S, S52V
notes: FLAG3-His6 tagged
B15: T0263018B11 S31T (VHH, name in Kabat numbering)
VHH: B1 VHH with G30S, S31T
notes: FLAG3-His6 tagged
B16: T0263018B11 S30N (VHH, name in Kabat numbering)
VHH: B1 VHH with G30N
notes: FLAG3-His6 tagged
B17: T0263018B11 S30Q (VHH, name in Kabat numbering)
VHH: B1 VHH with G30Q
notes: FLAG3-His6 tagged
B18: T0263018B11 S52P (VHH, name in Kabat numbering)
VHH: B1 VHH with G30S, S52P
notes: FLAG3-His6 tagged
B19: T0263018B11 S31K (VHH, name in Kabat numbering)
VHH: B1 VHH with G30S, S31K
notes: FLAG3-His6 tagged
B20: T0263018B11 S52aM (VHH, name in Kabat numbering)
VHH: B1 VHH with G30S, S53M
notes: FLAG3-His6 tagged
B21: T0263018B11 S52E (VHH, name in Kabat numbering)
VHH: B1 VHH with G30S, S52E
notes: FLAG3-His6 tagged
B22: T0263018B11 S31Q (VHH, name in Kabat numbering)
VHH: B1 VHH with G30S, S31Q
notes: FLAG3-His6 tagged
B23: T0263018B11 S52aA (VHH, name in Kabat numbering)
VHH: B1 VHH with G30S, S53A
notes: FLAG3-His6 tagged
B24: T0263018B11 S52Q (VHH, name in Kabat numbering)
VHH: B1 VHH with G30S, S52Q
notes: FLAG3-His6 tagged

Target: T1, human FcRn/b2M (human, UniProt P61769 21-119, biotinylated)
T1 construct: bought recombinant biotinylated protein (ACRO FCM-H82W4 or Immunitrack ITF01); also called hFcRn; hFcRn/hb2M
Assay: SPR off-rate; pH 7.4 vs pH 6.0;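 note: surface plasmon resonance with diluted periplasmic extracts flowed over ligand surfaces, 120 s association and 600–3600 s dissociation at 25 °C, running buffer containing 150 mM NaCl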
Experimental: (§1) All kinetic measurements have been performed on ProteOn XPR36 (BioRad Laboratories, Inc.), MASS-2 (Sierra sensors, Gmbh) or SPR-32 (Bruker Corporation). […] The phytip purified periplasmic extracts were diluted 1:10 in running buffer (CPA+150 mM NaCl+0.005% Tw20 at pH 5.5, pH 6.0 or pH 7.4) and injected over the ligand surfaces (association: 120 s at 45 μL/min; dissociation: 600s-3600 s at 45 μL/min). Experiments were carried out at 25° C.

| kd ratio pH 7.4/6.0 | Binder |
| --- | --- |
| 38 | B1 |
| 32 | B2 |
| 50 | B3 |
| 39 | B4 |
| 46 | B5 |
| 24 | B6 |
| 49 | B7 |
| 51 | B8 |
| 37 | B9 |
| 32 | B10 |
| 9 | B11 |
| 20 | B12 |
| 41 | B13 |
| 24 | B14 |
| 46 | B15 |
| 42 | B16 |
| 42 | B17 |
| 27 | B18 |
| 37 | B19 |
| 36 | B20 |
| 16 | B21 |
| 43 | B22 |
| 43 | B23 |
| 22 | B24 |

Target: T2, cyno FcRn/b2M (cyno, UniProt Q8SPV9 24-297; Q8SPW0 21-119, biotinylated)
T2 construct: bought recombinant biotinylated protein (Immunitrack ITF05 or ACRO FCM-C82W5); also called cFcRn; cFcRn/cb2M
Assay: SPR off-rate; pH 7.4 vs pH 6.0;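 note: surface plasmon resonance with diluted periplasmic extracts flowed over ligand surfaces, 120 s association and 600–3600 s dissociation at 25 °C, running buffer containing 150 mM NaCl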
Experimental: as §1

T2 sequence (Q8SPV9 24-297 limits assumed, chain 1 of 2): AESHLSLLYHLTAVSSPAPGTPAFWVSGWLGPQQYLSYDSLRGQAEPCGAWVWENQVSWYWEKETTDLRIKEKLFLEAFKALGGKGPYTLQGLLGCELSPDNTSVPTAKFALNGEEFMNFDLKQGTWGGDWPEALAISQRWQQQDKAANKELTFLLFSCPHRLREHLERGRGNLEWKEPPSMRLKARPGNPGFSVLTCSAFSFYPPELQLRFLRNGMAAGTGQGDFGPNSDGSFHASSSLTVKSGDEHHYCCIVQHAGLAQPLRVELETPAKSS
T2 sequence (Q8SPW0 21-119 limits assumed, chain 2 of 2): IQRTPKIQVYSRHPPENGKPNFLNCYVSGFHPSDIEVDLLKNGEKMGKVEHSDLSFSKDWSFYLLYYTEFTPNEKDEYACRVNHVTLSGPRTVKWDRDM

| kd ratio pH 7.4/6.0 | Binder |
| --- | --- |
| 35 | B1 |
| 27 | B2 |
| 69 | B3 |
| 51 | B4 |
| 48 | B5 |
| 25 | B6 |
| 59 | B7 |
| 60 | B8 |
| 44 | B9 |
| 61 | B10 |
| 18 | B11 |
| 24 | B12 |
| 51 | B13 |
| 25 | B14 |
| 60 | B15 |
| 46 | B16 |
| 47 | B17 |
| 37 | B18 |
| 40 | B19 |
| 48 | B20 |
| 20 | B21 |
| 79 | B22 |
| 51 | B23 |
| 26 | B24 |

Target: T1, human FcRn/b2M
Assay: SPR pH 6.0;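 note: surface plasmon resonance kinetics at 25 °C, diluted periplasmic extracts injected over immobilized ligand surfaces, 120 s association then 600–3600 s dissociation, running buffer containing 150 mM NaCl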
Experimental: as §1

| koff | Binder |
| --- | --- |
| 0.00066 s⁻¹ | B1 |
| 0.00039 s⁻¹ | B2 |
| 0.0034 s⁻¹ | B3 |
| 0.00088 s⁻¹ | B4 |
| 0.0032 s⁻¹ | B5 |
| 0.0019 s⁻¹ | B6 |
| 0.00088 s⁻¹ | B7 |
| 0.0012 s⁻¹ | B8 |
| 0.0016 s⁻¹ | B9 |
| 0.0044 s⁻¹ | B10 |
| 0.0078 s⁻¹ | B11 |
| 0.023 s⁻¹ | B12 |
| 0.00087 s⁻¹ | B13 |
| 0.0024 s⁻¹ | B14 |
| 0.00052 s⁻¹ | B15 |
| 0.0019 s⁻¹ | B16 |
| 0.00085 s⁻¹ | B17 |
| 0.0011 s⁻¹ | B18 |
| 0.0013 s⁻¹ | B19 |
| 0.00048 s⁻¹ | B20 |
| 0.0026 s⁻¹ | B21 |
| 0.00038 s⁻¹ | B22 |
| 0.00068 s⁻¹ | B23 |
| 0.0067 s⁻¹ | B24 |

Target: T2, cyno FcRn/b2M
Assay: SPR pH 6.0;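 note: surface plasmon resonance kinetics at 25 °C, diluted periplasmic extracts injected over immobilized ligand surfaces, 120 s association then 600–3600 s dissociation, running buffer containing 150 mM NaCl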
Experimental: as §1

| koff | Binder |
| --- | --- |
| 0.00054 s⁻¹ | B1 |
| 0.0004 s⁻¹ | B2 |
| 0.0018 s⁻¹ | B3 |
| 0.0006 s⁻¹ | B4 |
| 0.0022 s⁻¹ | B5 |
| 0.0017 s⁻¹ | B6 |
| 0.00073 s⁻¹ | B7 |
| 0.00079 s⁻¹ | B8 |
| 0.0014 s⁻¹ | B9 |
| 0.0031 s⁻¹ | B10 |
| 0.003 s⁻¹ | B11 |
| 0.016 s⁻¹ | B12 |
| 0.00077 s⁻¹ | B13 |
| 0.0025 s⁻¹ | B14 |
| 0.0003 s⁻¹ | B15 |
| 0.0013 s⁻¹ | B16 |
| 0.00055 s⁻¹ | B17 |
| 0.0013 s⁻¹ | B18 |
| 0.0011 s⁻¹ | B19 |
| 0.00027 s⁻¹ | B20 |
| 0.0023 s⁻¹ | B21 |
| 0.00016 s⁻¹ | B22 |
| 0.00043 s⁻¹ | B23 |
| 0.0055 s⁻¹ | B24 |

Target: T1, human FcRn/b2M
Assay: SPR pH 7.4;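 note: surface plasmon resonance kinetics, periplasmic extracts diluted 1:10 flowed over immobilized target at 25 °C, 120 s association then 600–3600 s dissociation, buffer with 150 mM NaCl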
Experimental: as §1

| koff | Binder |
| --- | --- |
| 0.025 s⁻¹ | B1 |
| 0.012 s⁻¹ | B2 |
| 0.17 s⁻¹ | B3 |
| 0.034 s⁻¹ | B4 |
| 0.15 s⁻¹ | B5 |
| 0.045 s⁻¹ | B6 |
| 0.043 s⁻¹ | B7 |
| 0.063 s⁻¹ | B8 |
| 0.059 s⁻¹ | B9 |
| 0.14 s⁻¹ | B10 |
| 0.069 s⁻¹ | B11 |
| 0.44 s⁻¹ | B12 |
| 0.036 s⁻¹ | B13 |
| 0.058 s⁻¹ | B14 |
| 0.024 s⁻¹ | B15 |
| 0.082 s⁻¹ | B16 |
| 0.035 s⁻¹ | B17 |
| 0.03 s⁻¹ | B18 |
| 0.048 s⁻¹ | B19 |
| 0.018 s⁻¹ | B20 |
| 0.042 s⁻¹ | B21 |
| 0.017 s⁻¹ | B22 |
| 0.029 s⁻¹ | B23 |
| 0.15 s⁻¹ | B24 |

Target: T2, cyno FcRn/b2M
Assay: SPR pH 7.4;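 note: surface plasmon resonance kinetics, periplasmic extracts diluted 1:10 flowed over immobilized target at 25 °C, 120 s association then 600–3600 s dissociation, buffer with 150 mM NaCl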
Experimental: as §1

| koff | Binder |
| --- | --- |
| 0.019 s⁻¹ | B1 |
| 0.011 s⁻¹ | B2 |
| 0.12 s⁻¹ | B3 |
| 0.031 s⁻¹ | B4 |
| 0.11 s⁻¹ | B5 |
| 0.042 s⁻¹ | B6 |
| 0.043 s⁻¹ | B7 |
| 0.047 s⁻¹ | B8 |
| 0.062 s⁻¹ | B9 |
| 0.19 s⁻¹ | B10 |
| 0.055 s⁻¹ | B11 |
| 0.38 s⁻¹ | B12 |
| 0.039 s⁻¹ | B13 |
| 0.064 s⁻¹ | B14 |
| 0.018 s⁻¹ | B15 |
| 0.061 s⁻¹ | B16 |
| 0.026 s⁻¹ | B17 |
| 0.048 s⁻¹ | B18 |
| 0.044 s⁻¹ | B19 |
| 0.013 s⁻¹ | B20 |
| 0.047 s⁻¹ | B21 |
| 0.013 s⁻¹ | B22 |
| 0.022 s⁻¹ | B23 |
| 0.14 s⁻¹ | B24 |
